The values below come from doi:10.1101/2023.02.23.529646 (bioRxiv, 2023).

The target in one assay is T1, ACAD9_(A184S) (human, UniProt Q9H845 38-621, A184S).
T1 sequence: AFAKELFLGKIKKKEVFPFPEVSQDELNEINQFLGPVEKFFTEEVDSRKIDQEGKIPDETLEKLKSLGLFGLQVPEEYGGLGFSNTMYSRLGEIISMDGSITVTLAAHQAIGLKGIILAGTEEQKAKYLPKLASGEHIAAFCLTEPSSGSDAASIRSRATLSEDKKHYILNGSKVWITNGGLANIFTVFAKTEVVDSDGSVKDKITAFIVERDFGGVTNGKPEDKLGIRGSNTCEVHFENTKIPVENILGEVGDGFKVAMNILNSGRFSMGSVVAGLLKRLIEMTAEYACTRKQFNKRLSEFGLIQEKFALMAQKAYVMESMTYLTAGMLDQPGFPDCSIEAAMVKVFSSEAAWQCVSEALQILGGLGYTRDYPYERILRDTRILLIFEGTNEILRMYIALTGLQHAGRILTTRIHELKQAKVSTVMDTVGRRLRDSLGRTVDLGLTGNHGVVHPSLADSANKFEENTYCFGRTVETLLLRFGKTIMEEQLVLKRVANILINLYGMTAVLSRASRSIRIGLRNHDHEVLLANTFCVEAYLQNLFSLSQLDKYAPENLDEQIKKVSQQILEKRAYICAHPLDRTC
In words: dynamic light scattering.

In assay [1] the target is T2, ACAD9WT (res. 38-621) (human, UniProt Q9H845 38-621).
T2 sequence: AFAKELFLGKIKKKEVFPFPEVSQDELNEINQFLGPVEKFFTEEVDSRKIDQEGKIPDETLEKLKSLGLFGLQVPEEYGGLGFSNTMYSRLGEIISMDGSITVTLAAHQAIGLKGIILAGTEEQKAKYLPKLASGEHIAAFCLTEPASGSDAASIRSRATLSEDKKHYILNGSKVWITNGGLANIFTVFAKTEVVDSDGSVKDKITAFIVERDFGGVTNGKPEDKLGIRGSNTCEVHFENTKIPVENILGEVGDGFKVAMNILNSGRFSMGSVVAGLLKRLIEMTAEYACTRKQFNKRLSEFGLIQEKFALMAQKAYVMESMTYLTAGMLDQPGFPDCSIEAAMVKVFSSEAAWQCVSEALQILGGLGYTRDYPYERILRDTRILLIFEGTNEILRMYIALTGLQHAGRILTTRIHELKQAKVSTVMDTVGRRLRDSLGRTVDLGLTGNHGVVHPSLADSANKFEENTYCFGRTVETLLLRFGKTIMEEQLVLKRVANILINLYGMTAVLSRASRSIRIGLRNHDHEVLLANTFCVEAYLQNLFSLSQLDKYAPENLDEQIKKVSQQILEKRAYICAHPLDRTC
The assay can be described thus: ITC.

The target in the next assay is T3, ACAD9_(S191A) (human, UniProt Q9H845 38-621, S191A).
T3 sequence: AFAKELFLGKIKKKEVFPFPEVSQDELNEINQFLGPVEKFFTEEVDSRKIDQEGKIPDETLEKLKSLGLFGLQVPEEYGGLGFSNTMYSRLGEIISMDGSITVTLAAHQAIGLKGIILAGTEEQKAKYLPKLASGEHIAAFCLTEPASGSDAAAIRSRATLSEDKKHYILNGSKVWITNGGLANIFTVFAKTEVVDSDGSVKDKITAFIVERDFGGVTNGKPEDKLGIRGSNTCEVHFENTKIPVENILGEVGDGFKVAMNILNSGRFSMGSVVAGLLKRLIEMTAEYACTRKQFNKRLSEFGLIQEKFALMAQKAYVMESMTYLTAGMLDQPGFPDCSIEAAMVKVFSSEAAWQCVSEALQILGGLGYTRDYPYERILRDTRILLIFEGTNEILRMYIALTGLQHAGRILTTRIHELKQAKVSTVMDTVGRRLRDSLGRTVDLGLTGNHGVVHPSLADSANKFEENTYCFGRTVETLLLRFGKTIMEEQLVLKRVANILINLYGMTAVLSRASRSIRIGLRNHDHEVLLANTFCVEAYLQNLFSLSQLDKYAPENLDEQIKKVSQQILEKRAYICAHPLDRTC
The assay can be described thus: ITC. A general note: In ITC the heat of successive injections is recorded.

Assay [2] addresses T2, ACAD9WT (res. 38-621). The assay can be described thus: cryo-EM structure.

B1: ECSIT_(CTER) (residues 221-431) (domain or fragment)
chain: QDPVELAMFGLRHMEPDLSARVTIYQVPLPKDSTGAADPPQPHIVGIQSPDQQAALARHNPARPVFVEGPFSLWLRNKCVYYHILRADLLPPEEREVEETPEEWNLYYPMQLDLEYVRSGWDNYEFDINEVEEGPVFAMCMAGAHDQATMAKWIQGLQETNPTLAQIPVVFRLAGSTRELQTSSAGLEEPPLPEDHQEEDDNLQRQQQGQS
Consider B1, for which the binding result with ACAD9_(A184S) is on record as “binds”. Also, the values for the Kd with ACAD9WT (res. 38-621) [1] and with ACAD9_(S191A) were 1450 nM and 3930 nM, respectively. Also, the “stoichiometry N” value in the assay with ACAD9WT (res. 38-621) [2] is 1 ECSIT_(CTER) per ACAD9 protomer.
